Test results reported in the DeepSol protein solubility set.

Test: soluble on expression in E. coli; label from the status in PepcDB or PDB records

Sequence | soluble on expression in E. coli
MSLTAENILNRNFEANKPNQKWFTDISYLNYGKGQKAYISAIIDRYDLSIIVYKVSKRNDLKLVMDILKLALQNNDASNTILHSDRGFQYTSKHYKNYLDTHNVKISMSKAGSCLDNQPIEAFWGTLKSEYYYRNQFSTYEDLETGISEYINYYMNKRYVPKFDGLTPNEYRNVSEGHHHHHH | not soluble
MNVIRTEIEDVLILEPRVFGDDRGFFYESFNQSAFEHILGYPVSFVQDNHSRSSKNVLRGLHFQRGEYAQDKLVRCTHGAVFDVAVDIRPNSVSFGKWVGVLLSADNKQQLWIPKGFAHGFLVLSDIAEFQYKTTNYYHPESDCGICWNDERIAIDWPQTSGLILSPKDERLFTLDELIRLKLIA | not soluble
MGSDKIHHHHHHMNEGKILSGLLAPHPPHLVYGENPPQNEPRSQGGWEPLRWAYDQVRENIEHLKPDVLIVHSPHWITQVGHHFLGVPRLTGRSVDPIFPNLFRYDFGMNVDVELAEACCEEATKLGLVSKMMRNPSFRVDYGTITTLHMVRPQWDIPVVGISANNTPYYLNTKEGLGEMDLLGRATREAIRKTGRRAVLLASNTLSHWHFHEEPALPEDMSKEHPERYDGYLWDVRMIELMRKGHMKEVFELLPQFIEEAFAEIKSGAFTWMHAAMGYPELAGKLHGYGTVIGTGNAVIEWNLEDVGLSRLESVA | not soluble
MEEVSSEMEVEVQNRQLSDSSPAQNVKKFGLKNSIQTNFGSDYVFQIVPKIDWTAIAVSLSTNTVKLYSPVTGQYYGECKGHSDTVNQIAFSSDSAASPHVLHSCSSDGTIRSWDTRSFQQVSRIDTGNDQEIFSFSYGGAADNLLAGGCKEQVLLWDWRNSKQVACLEESHMDDVTQVHFVPNKPNKLLSASVDGLICLFNTEGDINDDDHLESVINVGTSIGKIGFLGDGYKKLWCLTHIETLSIWNWEDGSCEVNLEKARELASDSWTQDNVDYFVDCHCPGGEDLWVIGGTCAGTVGYFPVNYKQPGSIGTAEAILGGGHIDVVRSVLQMPGEYGGAAGLFGWTGGEDGRLCCWKSDEDATEINRSWTSSELVVKPPRNRKKNRHSPY | not soluble
MSFESNQLMPIAALRGGPGTPAADVLTAFALRRKAEGIDVVGVIVPPEDAGSGHQGHGHGEGHGGGHEGCECRSELIDIATGDRYAMHQDLGSGSQACNLNSSSLALAAGAVERAVARKPALVVLSRFGGQEAVRGGLMSAFQAAIAAGVPVACVVTPKAEDVWNDFAQGLSVSLPPEADALEAWWRDHARGRNAALEHHHHHH | not soluble
MEDVNDLYTMALGEFYAPAPSTSSIKKPAKVPEDQPSTSSAPPTTALFRQLLIGSRSQIERLKKENEELKTKLKHATSSGGVVICPNCTHHFKDRQCPMRPRAMKKMRARNCVELEFGNLEDLEMWLYLNQLETNNDGMPTVMNVKKATNCPEKSLKESGSLLPELVEKKREEKRQQEDQKAVVLEKRKPVTQKVQDHLKRRSKSPIGRGKDQSDKDIISNKKRKLNRQSKEEIDERSKIAKKAPISQRVQFPRMPAPQAPDAVASKVREQKPVDITPHPRPSASRNSESQKPVASKIQEKKTEVRTKSSPTNPIVNSKQPSQKKPADLTPHPKRPPITPETLPSRNSEIQKPAASKIQEKKTEVIARSQKSEASTKIAQKPSPTNPTVNFKQPSQKPADLTPKPITLASKSPITRSSEVSTEPSTKPKRAPIVWDDKPKDSTAKELPKELPKAKSHFEFKVKPIEKKDASPPKTTSTSSASPPNPDPAMKQKYKFVPTSKKQKLTETKNKDQKSTINESPVECQNSGQNEASNPTKLKDQELNKHVVPKNPEAIETPDERQESVQKSNEASATSSTKPSDPVETPSDEVDPQETQWKVYSVKQSRPVLDHIYKFALARQSLKRHWNDKMIVLNGDVPQEKVEESKPLSIAESLKRIGVSVEGIAVLQKQLKASAPEPPVLSTTVDDEDALGEFFPDLAKRKTSEIRPVSAESLWSVTDREEEELKILVREDSVVPPSGDCLMDVEAYEITEDLESQTYEASQSDWKEFCLEDVDDDVDETLRERKLSEMEKSAENLDENMDWIENLEELGNDDEQEEEEEEDQEQEQEQVAPSRSISVPLEMKNDFVLSDEDDPVSPVTSTPRKEDFNDDLSGCLEEDEEDTENLLPQAKDDSFIDELDWNYGTDYEEEEVEEAEVVVEEKDNSGSDHDATLEDGEISENDDGEDEKKEEEPKKPIRERTKFMITEDQLGPKTDEEEDEPPEIHRAPPRKRKINYNRQKGSEDNRHRNYRKRDTRPATYLSLLKRRNS | not soluble
MSLRDSAFFETGEKHFRTLCSSCHSAHQEIYGPMLGSISKKRKESWLIPFIRNSQEVIRSGDAYAKALFEKFDHQIMPPFEQLSDQDIKAILYYLEIESLQPQEYLNDAAIPPTSDSSVIRGKQEFLDHCSMCHFVHKESTFAPALGSVTKRHSREWLISFIQNSEKKINQGDAYAVHLFNQFDQHVMTNMDFLPIEEINAILDYIEFASTVDVAEGHHHHHH | not soluble
